B1: Antibody-drug conjugate 1: 900698 antibody cysteine-conjugated to SN-38 via Mc-VC-PAB-DMEDA-PEG linker, DAR about 7.8 (conjugate)
VH: QVQLVESGGGLVKPGGSLRLSCAASGFTFSKYAMSWIRQAPGKGLEWVAEISSGGGYINYADSVKGRFTISRDNAKNSLYLQMNSLRAEDTAVYYCARAIYYYGSSYNYYAMDYWGQGTTVTVSS
VL: DIQMTQSPSSLSASVGDRVTITCRASQDVGTAEAWYQQKPGKAPKLLIYWASTRHTGVPSRFSGSGSGTDFTLTISSLQPEDFATYYCQQYSSYPLTFGQGTKLEIK
B2: Antibody-drug conjugate 2: 900698 antibody cysteine-conjugated to SN-38 via MP2-VC-PAB-DMEDA-PEG linker, DAR about 7.8 (conjugate)
VH: B1 VH
VL: B1 VL
B3: 900698: anti-CD73 antibody, VH SEQ ID NO: 35, VL SEQ ID NO: 34 (antibody, V domains shown)
VH: B1 VH
VL: B1 VL
modifications: 900696, 900698 (VH); 900695, 900698 (VL)

Experiments:
Monkey CD73 = experiment: Biacore binding kinetics with monkey CD73 protein; settings: Monkey CD73, Biacore T200, protein A chip, 25° C., 1:1 binding model
Procedure: The binding kinetics of the antibody-drug conjugate 1 and the antibody-drug conjugate 2 prepared in Example 1 and the 900698 naked antibody with a human CD73 protein (manufacturer: ACRO Biosystems, Cat. No. CD3-H52H7) and a monkey CD73 protein (manufacturer: Novoprotein, Cat. No. CI21) were assayed using Biacore (GE, model: T200), with an assay buffer of HBS-EP+ (pH 7.4) and a protein A chip (manufacturer: GE, Cat. No. 29-1275-56).
The temperature for the sample compartment and the flow path was set to 25° C. The protein A chip captured each antigen-binding protein as a ligand, fixing about 100 RU. The human CD73 protein was diluted with the assay buffer to a series of concentrations of 50 nM, 25 nM, 12.5 nM, 6.25 nM, 3.12 nM, and 1.57 nM, serving as analytes, and the assay buffer was used as a 0 concentration control. At a flow rate of 30 μL/min, association was conducted for 120 s, and dissociation was conducted for 600 s. Glycine (10 mM, pH 1.5) was used for regeneration at a flow rate of 50 μL/min for 60 s in a multi-cycle kinetic assay. A 1:1 binding model was used, and the Fit Local mode was selected to determine the association rate constant (ka), dissociation rate constant (kd), and equilibrium dissociation constant (KD).

[1] = molecular target: T1, human CD73 (CHOK1-huCD73-3F4 cells) (Homo sapiens, UniProt P21589); experiment: Cell binding activity to human CD73 antigen expressed on membrane (flow cytometry); type: cell-based; settings: FACS, FIG. 2
T1 construct: host or cells: CHOK1-huCD73-3F4 (CHO-K1 clone)
T1 sequence (P21589 27-549): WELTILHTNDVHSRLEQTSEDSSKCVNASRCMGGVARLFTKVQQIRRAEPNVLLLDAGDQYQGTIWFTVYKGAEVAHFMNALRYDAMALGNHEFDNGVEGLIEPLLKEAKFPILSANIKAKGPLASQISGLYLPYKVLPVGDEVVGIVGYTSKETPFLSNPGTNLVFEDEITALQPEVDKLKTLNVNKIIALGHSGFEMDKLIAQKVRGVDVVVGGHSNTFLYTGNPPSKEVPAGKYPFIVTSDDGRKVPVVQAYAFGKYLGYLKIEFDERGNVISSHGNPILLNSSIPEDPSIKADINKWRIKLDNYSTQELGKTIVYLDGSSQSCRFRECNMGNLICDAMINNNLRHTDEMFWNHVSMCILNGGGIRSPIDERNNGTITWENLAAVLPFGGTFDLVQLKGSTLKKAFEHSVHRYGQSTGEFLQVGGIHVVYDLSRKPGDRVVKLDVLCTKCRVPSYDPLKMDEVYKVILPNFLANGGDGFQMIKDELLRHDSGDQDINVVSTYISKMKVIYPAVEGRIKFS
Procedure: The binding activity of the antibody-drug conjugate 1 and the antibody-drug conjugate 2 prepared in Example 1 and the 900698 naked antibody to cells expressing human CD73 (CHOK1-huCD73-3F4, Huabo Biopharm) was assayed.
All antigen-binding proteins were diluted to 30 μg/mL with a solution of 1% BSA in PBS (1% BSA/PBS), followed by a 3-fold dilution across 10 gradients. The diluted proteins were each added at 20 μL per well to a 96-well U-bottom plate, with a negative control (adding only 1% BSA/PBS) set up simultaneously. A suspension of cells expressing human CD73 (CHOK1-huCD73-3F4, Huabo Biopharm) in the logarithmic growth phase was taken and centrifuged (1000 rpm×5 min), and then the culture medium was discarded. The cells were resuspended in 1% BSA/PBS until the viable cell density was 1×10^6 cells/mL, then added at 20 μL (2×10^4 cells) per well to the 96-well U-bottom plate containing the anti-CD73 antigen-binding proteins, and incubated at room temperature for reaction for 30 min. The reacted cells in the 96-well U-bottom plate were resuspended in 1% BSA/PBS and centrifuged (300 g×3 min), and then the supernatant was discarded. This washing process was performed once. Then, a 1:200 dilution of PE-goat anti-human-Fc (Jackson ImmunoResearch, #109-115-098) was added, and the cells were incubated in the dark at room temperature for reaction for 15 min. The reacted cells in the 96-well U-bottom plate were further resuspended in 1% BSA/PBS and centrifuged (300 g×3 min), and then the supernatant was discarded. This washing process was performed 3 times. Finally, the cells were resuspended in 100 μL of 1% BSA/PBS per well, and the fluorescence intensity in the PE channel was detected using a flow cytometer (BD, #Canto II).
The results for the binding activity of the antibody-drug conjugate 1, the antibody-drug conjugate 2, and the 900698 naked antibody are shown in FIG. 2 (represented as 1-3 in FIG. 2, respectively).

[2] = system: BxPC-3 human pancreatic cancer cells; experiment: BxPC3 CDX pancreatic cancer mouse efficacy model; type: in vivo, NPG mice; settings: for inhibition of growth of BxPC-3 pancreatic cancer: 1 mg/kg i.p. BIW, 6 doses, FIG. 7; for inhibitory effect on tumor growth compared with 900698, Oleclumab and Uliledlimab: conjugate 1 mg/kg vs antibodies 5 mg/kg, i.p. BIW
Procedure: NPG mice were used to establish a BxPC-3 pancreatic cancer animal model for assaying the efficacy of the test antibodies. The BxPC-3 human pancreatic cancer cells used in this example were incubated in an RPMI-1640 medium supplemented with 10% FBS in an incubator at 37° C. with 5% CO2. Before continuous cell culturing for ten generations, 100 μL of PBS containing about 1×10^7 BxPC-3 cells was mixed uniformly with an equal volume of Matrigel. The mixture was then inoculated by subcutaneous injection into 18 NPG mice on the right side of the back near the axilla, with an inoculation volume of about 200 μL. The mice were anesthetized with 2%-5% isoflurane prior to the inoculation. On the day of inoculation, 1.0×10^7 PBMCs (100 μL) were injected via the tail vein. When the tumors grew to an average size of about 50-80 mm^3, the 18 tumor-bearing mice were randomly divided into 3 groups of 6 based on tumor volume and body weight.
Oleclumab is an anti-CD73 monoclonal antibody developed by AstraZeneca, currently in Phase 2 clinical trials. Uliledlimab is an anti-CD73 monoclonal antibody developed by I-Mab Biopharma, currently in Phase 1 clinical trials. The amino acid sequence of the heavy chain of 900543 is as set forth in SEQ ID NO. 45, and the amino acid sequence of the light chain of 900543 is as set forth in SEQ ID NO. 46. The amino acid sequence of the heavy chain of Oleclumab is as set forth in SEQ ID NO. 47, and the amino acid sequence of the light chain of Oleclumab is as set forth in SEQ ID NO. 48. The amino acid sequence of the heavy chain of Uliledlimab is as set forth in SEQ ID NO. 49, and the amino acid sequence of the light chain of Uliledlimab is as set forth in SEQ ID NO. 50.

Molecule | ka (Monkey CD73) [M⁻¹ s⁻¹] | kd (Monkey CD73) [s⁻¹] | binding activity (affinity) for cells expressing human CD73 [1] | inhibition of growth of BxPC-3 pancreatic cancer [2] | inhibitory effect on tumor growth compared with 900698, Oleclumab and Uliledlimab [2]
B1 | 55000 | 1.92e-06 | good affinity | significantly inhibit the growth | superior
B2 | 454000 | 0.000114 | good affinity | significantly inhibit the growth | superior
B3 | 148000 | 1.8e-05 | good affinity | – | –
